According to the DeepSol protein solubility set:

test: soluble on expression in E. coli; label from the status in PepcDB or PDB records

Question: With “MSTCSDESCDKECPLCMETLELDDINFYPCKCEYQICRFCWHRIRTDENGLCPACRQPYPEDPVNFKPMTTDDVRKHKDEQRLKKQAEKLKLSDARQYLCNYRVLQKNLVYVVGLSPRVADPEILKKNEYFGRYGKIQKIVTSATPSLPAPHLPPSHTAYVTYKRVDDALRAIQGVHNSMLDGRLVKASLGTTKYCSSFLNSRKCFKPVGECMYLHENAEAEISFTKDDMHLGKHTEYEKRLIESMNSRPPPPQSTLASQLDKILAPTSNSPRRYLEDDSDTVDDVERTGSAIHMCADDPDDDDADSTNTSNSIDDPAPSNPADETVNSRRSNQTARERQWSERDEISVAPSNTPPTDPEGNENEFEEDIHRNDVSDLMSKLDVNDDRLARTSFSENDYLGIPAPAKHQEAPAPLMQWEALLGLSSPSAQSTIVEPSSLFPTFKMDSGFNSQSLFGTHTSSTPSFRREASPPPGLARFNSDDDLGFDPFTESSKGLSALLQEEQEQIPPHNSASNHTLDVLKQLFGQLPEQRQSTQQHPQHLQSSHQQHPLQQNQDQHHSFLHQLHAQQQHQQQQFAADMNRQQDYMYSRLMSQQQQQSQQQRQFDSTPGFSHPFGSMQQQQQSSQQQQHQSQSSQSSSLLQDLFNRQQQQHQAQQQAQQHQQQQMYAGINSYMYNDMLMPRVPFGMAPPPGLGGPSTNRSSTTQQAPPHMTQQSQQQQQQQQSSMGLFGMGGHQSMMQDHQSQQPQSAQDAFKALLPNVNVRFMDDNSMSRWSHENSLRSSAVPPPPGFSSVMNR” as the sequence, how does the “soluble on expression in E. coli” value read?
Answer: The value was “not soluble”.

Question: Which “soluble on expression in E. coli” value does the source give for “MPGTKQVNVGSLKVGQYVMIDGVPCEIVDISVSKPGKHGGAKARVVGIGIFEKVKKEFVAPTSSKVEVPIIDRRKGQVLAIMGDMVQIMDLQTYETLELPIPEGIEGLEPGGEVEYIEAVGQYKITRVIGGK” here?
Answer: Its value is “soluble”.

Question: For “GPGSMPLERSFIDPGHASMGYEAGLIPRLRRDSIVRGVLEENEDMLREIDLLRDTVTKQAQELFTATKRIHVLESRLARLEGAEDASHERTDDSDNVEEVTSVDKAGILRSIFRAISSCQFGDRHTRIRAYKQGLVRKSAEKARDFGEKSEKKSELPGKEQQDFLGHAFHESNKRLDEVSSLLQSYRKTPSFLVSAYDELVIDCMMEIIRLSKKMNLMTVGDFGALAD”, which “soluble on expression in E. coli” value is on record?
Answer: Its value is “not soluble”.

Question: For “MAHHHHHHMSFSKFMKCSTQLSRRLSNFEGKGTFNKSAFYNCTREKCSIVCLRKKMNVELKKICEISKMNKRNYSSECENYEFKAETKKLLQIVAHSLYTDKEVFIRELISNSSDAIEKLRFLLQSGNIKASENITFHIKVSTDENNNLFIIEDSGVGMNKEEIIDNLGTIAKSGSLNFLKKLKEQKESINRNNNINKNEIDNKINNNNNMDVPIEGNEKSQEGDIIGQFGVGFYSSFVVSNKVEVFTRSYDNNSSKGYHWVSYGNGTFTLKEVDNIPKGTKIICHLKDSCKEFSNIQNVQKIVEKFSSFINFPVYVLKKKKILQTRKDIEQNELNDHTQQNELNHHNDQNDHTQQNELNHHNDQNDHTQQNELNHHNDQNDHTQQNELNHHVEHHKNVVENKNDEYEKNMDNRTSDNIKPESLSKQNDYENMNQCNNEETVLNRTKELNEEHIVEEILVNKQKPLWCKDNVTEEEHRHFFHFLNKNKSYNEDNKSYLYNMLYKTDAPLSIKSVFYIPEEAPSRLFQQSNDIEISLYCKKVLVKKNADNIIPKWLYFVKGVIDCEDMPLNISRENMQDSSLINKLSRVVVSKILKTLEREADINEEKYLKFYKNYNYNLKEGVLEDSNKNHYKNSLMNLLRFYSINQNKFISLKQYVNNFRNNQKNIYYFSANDKNVALNSPYMEPFKKQNIDVLLLLEEIDEFVLMNLQTYKDAKFVSIDTSQNEDFDEAVLNTNKNDNEKKQSIFFNDEQKKELQAYFKQVLGSK”, which “soluble on expression in E. coli” value is on record?
Answer: The value was “not soluble”.

Question: With “MKYLLPTAAAGLLLLAAQPAMAMASGGNSDSKTLNSLDKIKQNGVVRIGVFGDKPPFGYVDEKGNNQGYDIALAKRIAKELFGDENKVQFVLVEAANRVEFLKSNKVDIILANFTQTPQRAEQVDFCSPYMKVALGVAVPKDSNITSVEDLKDKTLLLNKGTTADAYFTQNYPNIKTLKYDQNTETFAALMDKRGDALSHDNTLLFAWVKDHPDFKMGIKELGNKDVIAPAVKKGDKELKEFIDNLIIKLGQEQFFHKAYDETLKAHFGDDVKADDVVIEGGKILEHHHHHH” as the sequence, how does the “soluble on expression in E. coli” value read?
Answer: The value was “soluble”.

Question: For “MSLDSSPHSQVNDPLESFNRQMWTINYDYLDPYVVRPVSLFYVGYVPKPVRSGIANFLSNLDEPASMVNNLLMGNGTKAVDHFNRFWINTSFGLLGLIDIASEAGIKKYDDKAFSDAVGHYGVGNGPYLMVPGYGPYTVREVTDVVDGMYFPLAYLNIWAGVGKWALEGMETRAALVSQEALLQDSPDPYSLARDAYLQRQAFKAEIQVDDYDPEEEEYLDEYLNEGEGHHHHHH”, which “soluble on expression in E. coli” value is on record?
Answer: Its value is “soluble”.

Question: Which “soluble on expression in E. coli” value does the source give for “MSRGTQACINAAHTVSGIIGDLDTTIMFATAGTLHSDGDGSFADHREHILQTAKALVEDTKVLVTGAAGTQDQLANAAQNAVSTITQLAEAVKRGACSLGSTQPDSQVMVINAVKDVASALGDLINCTKLASGKSINDPSMQDLKESARVMVLNVSSLLKTVKAVEDEHTRGTRAMEATVEAISQEIRALEHHHHHHHH” here?
Answer: Its value is “soluble”.

Question: Which “soluble on expression in E. coli” value does the source give for “MHHHHHHRMKQLEDKVEELLSKNYHLENEVARLRSPPLLVGVVSDILEDGRVVVKSSTGPKFVVNTSQYINEEELKPGARVALNQQTLAIVNVLPTSKDPMVYGFEVEE” here?
Answer: The value was “soluble”.

Question: For “MGSDKIHHHHHHMSTPSPALFFNTVNAYQRSAAIKAAVELNVFTAISQGIESSQSLAQKCQTSERGMRMLCDYLVIIGFMTKQAEGYRLTSDSAMFLDRQSKFYVGDAIEFLLSPMITNGFNDLTAAVLKGGTAISSEGTLSPEHPVWVQFAKAMSPMMANPAQLIAQLVNENKIEPLKVLDISASHGLFGIAVAQHNPNAEIFGVDWASVLEVAKENARIQGVASRYHTIAGSAFEVDYGNDYDLVLLPNFLHHFDVATCEQLLRKIKTALAVEGKVIVFDFIPNSDRITPPDAAAFSLVMLATTPNGDAYTFAEYESMFSNAGFSHSQLHSLPTTQQQVIVAYK”, which “soluble on expression in E. coli” value is on record?
Answer: The value was “not soluble”.

Question: For “MGHHHHHHKVTLPDLKWDFGALEPYISGQINELHYTKHHQTYVNGFNTAVDQFQELSDLLAKEPSPANARKMIAIQQNIKFHGGGFTNHCLFWENLAPESQGGGEPPTGALAKAIDEQFGSLDELIKLTNTKLAGVQGSGWAFIVKNLSNGGKLDVVQTYNQDTVTGPLVPLVAIDAWEHAYYLQYQNKKADYFKAIWNVVNWKEASRRFDAGKI”, which “soluble on expression in E. coli” value is on record?
Answer: The value was “soluble”.

Question: With “MRTHDDTWDIKTSVGATAVMVAAARAVETDRPDPLIRDPYARLLVTNAGAGAIWEAMLDPTLVAKAAAIDAETAAIVAYLRSYQAVRTNFFDTYFASAVAAGIRQVVILASGLDSRAYRLDWPAGTIVYEIDQPKVLSYKSTTLAENGVTPSAGRREVPADLRQDWPAALRDAGFDPTARTAWLAEGLLMYLPAEAQDRLFTQVGAVSVAGSRIAAETAPVHGEERRAEMRARFKKVADVLGIEQTIDVQELVYHDQDRASVADWLTDHGWRARSQRAPDEMRRVGRWVEGVPMADDPTAFAEFVTAERL” as the sequence, how does the “soluble on expression in E. coli” value read?
Answer: The value was “soluble”.

Question: With “MLMPRQTTPPLSLPLVGGGRFDLSAETSTRWTLICFYRGLHCPICATYLKELEKRVADFAERGVACVAVSSDSEERAQAMAEKVGGGTLRFAYDLPLAEARDWGLYISTSRGKTSIGIEEPALFSEPGLFLVTPERTLYYGAVQTMPFVRPHFSELVAALDFAIPNNYPARGEYTGAV” as the sequence, how does the “soluble on expression in E. coli” value read?
Answer: The value was “soluble”.

Question: With “TDAFFFAGFLPNAAAARKTRLETLRGVPGTLVFYESPKRLAASLRDMAEVLGGERPAALCRELTKKFEETRRDTLAGLAEALAEAPVKGEVVLLVDRARSG” as the sequence, how does the “soluble on expression in E. coli” value read?
Answer: The value was “not soluble”.

Question: With “AELVSDKALESAPTVGWASQNGFTTGGAAATSDNIYIVTNISEFTSALSAGAEAKIIQIKGTIDISGGTPYTDFADQKARSQINIPANTTVIGLGTDAKFINGSLIIDGTDGTNNVIIRNVYIQTPIDVEPHYEKGDGWNAEWDAMNITNGAHHVWIDHVTISDGNFTDDMYTTKDGETYVQHDGALDIKRGSDYVTISNSLIDQHDKTMLIGHSDSNGSQDKGKLHVTLFNNVFNRVTERAPRVRYGSIHSFNNVFKGDAKDPVYRYQYSFGIGTSGSVLSEGNSFTIANLSASKACKVVKKFNGSIFSDNGSVLNGSAVDLSGCGFSAYTSKIPYIYDVQPMTTELAQSITDNAGSGKL” as the sequence, how does the “soluble on expression in E. coli” value read?
Answer: Its value is “soluble”.

Question: For “LPIQARPRRNRKNRAVRQLVQENLVKPSSLIYPLFVHDEETSVPIPSMPGQSRLSMEDLLKEVGEARSYGIKAFMLFPKVDDELKSVMAEESYNPDGLLPRAIMALKEAFPDVLLLADVALDPYSSMGHDGVVDEQSGKIVNDLTVHQLCKQAITLARAGADMVCPSDMMDGRVSAIRESLDMEGCTDTSILAYSCKYASSFYGPFRDALDSHMVGGTDKKTYQMDPSNSREAEREAEADASEGADMLMVKPGLPYLDVLAKIREKSKLPMVAYHVSGEYAMLKAAAEKGYISEKDTVLEVLKSFRRAGADAVATYYAKEAAKWMVEDMKGTQKFTEPCY”, which “soluble on expression in E. coli” value is on record?
Answer: Its value is “soluble”.

Question: For “MMCSTVISQLGFECHPIGKTLRIISPFTYCDDGEHVGAFIREVNGRYLVSDRCDALMNMEARGISLTKKRLDEIRQLLLKEGAELNARGEIIAWATEKDVGAITSNIIRAGILASTLSLDWYQPVQAEKFESMVIDYLYHTELRDALSLRENVYGLSGHQITVPVTIKTDIPKYVFTSSVKHGGSWNSAYSLLGKLIDLKASSEEYNNRFVVIDSEAIGDQMQQLSLLFHESSQVLPFSKRETWVKRLAA”, which “soluble on expression in E. coli” value is on record?
Answer: Its value is “not soluble”.

Question: Which “soluble on expression in E. coli” value does the source give for “MGSDKIHHHHHHMIIELNKSNSENLTKTELEIIKFINENESILPELSIVEIAHETYSSPATVSRAIRKCGLNGFNELRYRLTVKDENDDIQNMGDIINKSFIEAQRVIEQISLTTLINIIKTINKSSKIYILARGLTEYVAKEFSLKLQLLDFNVVFINDPNIMKIKSKSIKKDELIIIFSLNGNTIELVESAQNANLVGAKVITCCCSESAKLIKYSDLYIVGYKHEHISISEYEVSSRLPLYIISRIIIDYMVRYNNSEN” here?
Answer: The value was “not soluble”.

Question: For “MGSDKIHHHHHHMTTTSPDISRFGPIGLVVIQSTSLCNLDCSYCYLPDRKSRKIFDLELLPLLMQRIFESPFFGEELSLVWHAGEPLTLPCSYYDRATQLINEAVEQWTNGTVHVEQHVQTNATLINDAWCECFRRNKIIVGISVDGPKDIHDANRCFGNGEGSHVHSMRGIEALKRNKIPFHAIAVVTATAMDHPNEMYQFFRDNEIHSVGFNVEEQEGEHTSSSMQGYEREEQYRQFLESFWQLSEQDGFPVVLREFDQVISLIRENRRLNQNELNRPYSILSVDWQGNFSTFDPELLSVSSKLYGTFDLGSIRNISLMEAAKTERFQTLWKDMLSGVKRCEKECNYFGFCGGGMGSNKFWEHGSLNCSETNACRFNNKIPVDVLLDRFKSSPPIDNETPF”, which “soluble on expression in E. coli” value is on record?
Answer: Its value is “not soluble”.

Question: For “MGSDKIHHHHHHMAGFRPKASPRLSPDAERLVADALALDASGSRMEDAYWERRLSQRLGRLLKNGSQTALDAALEHLFKHNADASDVLAEQAETLAESAMVEVDGVRYDALLVAAPILAHTRYAIPSGSLKPDLAQTLAVHLQAHVLATGTKVALSPYLYSIDQLPRTHSDTFALTHKLAAAALSGTVPKVDLRDLPETAPILADPRYLLAVVVAPHEQALFRWQEDAKEHHAERSTCLEQWRSQVQATVALLLPGCEFELLLPDAFFLSCRESDKSIRPLTVRAAVNYLSGTLDVPAGQLAAVVAAFGEEVVEEYRVGFTMRGEKDVIYGIVWPVYGREAGEVDADEKGNPLEQICEELRNAGVEDIFRHAALFDPEYCEDCGTPLYADRNGEIVHAELPEDAPTQQPLFH”, which “soluble on expression in E. coli” value is on record?
Answer: Its value is “not soluble”.
